The values below come from patent US20150322474A1 (UNIVERSITY OF THE UNIVERSITY OF ABERDEEN, published 2015).

B1: PatGmacH618A (inactive mutant of the PatG macrocyclase domain) (enzyme)
chain: GEDEIESAGVSASEVESSATKQKVALHPHDLDERIPGLADLHNQTLGDPQITIVIIDGDPDYTLSCFEGAEVSKVFPYWHEPAEPITPEDYAAFQSIRDQGLKGKEKEEALEAVIPDTKDRIVLNDAACHVTSTIVGQEHSPVFGIAPNCRVINMPQDAVIRGNYDDVMSPLNLARAIDLALELGANIIHCAFCRPTQTSEGEEILVQAIKKCQDNNVLIVSPTGNNSNESWCLPAVLPGTLAVGAAKVDGTPCHFSNWGGNNTKEGILAPGEEILGAQPCTEEPVRLTGTSMAAPVMTGISALLMSLQVQQGKPVDAEAVRTALLKTAIPCDPEVVEEPERCLRGFVNIPGAMKVLFGQ
B2: PatGmac K598D (protein)
chain: B1 chain with K107D, A127H
B3: PatGmac K594D (protein)
chain: B1 chain with K103D, A127H
B4: PatGmac wild-type (macrocyclase domain of PatG, residues 492-851) (protein)
chain: B1 chain with A127H
B5: PatGmac triple mutant R589D K594D K598D (protein)
chain: B1 chain with R98D, K103D, K107D, A127H
B6: PatGmacΔ1 (deletion of residues 578-608, the helix-loop-helix insertion motif) (protein)
chain: GEDEIESAGVSASEVESSATKQKVALHPHDLDERIPGLADLHNQTLGDPQITIVIIDGDPDYTLSCFEGAEVSKVFPYWHEPAEPITKDRIVLNDHACHVTSTIVGQEHSPVFGIAPNCRVINMPQDAVIRGNYDDVMSPLNLARAIDLALELGANIIHCAFCRPTQTSEGEEILVQAIKKCQDNNVLIVSPTGNNSNESWCLPAVLPGTLAVGAAKVDGTPCHFSNWGGNNTKEGILAPGEEILGAQPCTEEPVRLTGTSMAAPVMTGISALLMSLQVQQGKPVDAEAVRTALLKTAIPCDPEVVEEPERCLRGFVNIPGAMKVLFGQ
B7: PatGmacΔ2 (deletion of residues 578-614, the helix-loop-helix insertion and the N-terminal extension of α4) (protein)
chain: GEDEIESAGVSASEVESSATKQKVALHPHDLDERIPGLADLHNQTLGDPQITIVIIDGDPDYTLSCFEGAEVSKVFPYWHEPAEPILNDHACHVTSTIVGQEHSPVFGIAPNCRVINMPQDAVIRGNYDDVMSPLNLARAIDLALELGANIIHCAFCRPTQTSEGEEILVQAIKKCQDNNVLIVSPTGNNSNESWCLPAVLPGTLAVGAAKVDGTPCHFSNWGGNNTKEGILAPGEEILGAQPCTEEPVRLTGTSMAAPVMTGISALLMSLQVQQGKPVDAEAVRTALLKTAIPCDPEVVEEPERCLRGFVNIPGAMKVLFGQ

Positions count from the first letter of the chain named. Numbers in names are those of the source.

The first series deals with T1, VPAPIPFPAYDG peptide (substrate mimic, P8-P4').
T1 peptide: VPAPIPFPAYDG
The experiment in a line: X-ray crystal structure of the complex, 2.63 Å (co-crystallised, then soaked in 7.5 mM peptide).
On to B1, for which the binding result is “binds”.

Another series has as its target T2, VGAGIGFPAYRG peptide substrate (modified recognition sequence, Asp to Arg).
T2 chain: VGAGIGFPAYRG
Experiment: not given
On to B2, for which the “linear product, LC-MS” value was “PatGmac K598D produced cyclo[VGAGIGFP] with only 8% linear product, at a rate over an order of magnitude faster than wild-type PatGmac with VGAGIGFPAYDG”.
On to B3, for which the “macrocyclization reaction, LC-MS” value was “reacted extremely slowly with the substrate giving equal amounts of macrocyclized and linear products”.
Still for that read-out and setting: the same measure for B4: “reacted extremely slowly with the substrate giving equal amounts of macrocyclized and linear products”; for B5: “reacted extremely slowly with the substrate giving equal amounts of macrocyclized and linear products”.

The next series has as its target T3, VGAGIGFPAYDG peptide substrate.
T3 chain: VGAGIGFPAYDG
Experiment: not given
Regarding B6, the Cyclic ion count (%) (M + H = 699) turned out to be 0%, the Linear ion count (%) (M + H = 717) came out at 92% and the Unprocessed ion count (%) (M + H = 1123) was 8%.
In the case of B7, the Cyclic ion count (%) (M + H = 699) was 0%, the Linear ion count (%) (M + H = 717) was > 99% and the Unprocessed ion count (%) (M + H = 1123) was < 1%.
On the same counts, the results for B2 are 0%, 100% and 0%.
For the molecule B3, the Cyclic ion count (%) (M + H = 699) worked out at 29%, the Linear ion count (%) (M + H = 717) was determined as 71% and the Unprocessed ion count (%) (M + H = 1123) was found to be 0%.
The corresponding values for B4 are 100%, 0% and 0%.
On the same counts, the results for B5 are 0%, 6% and 94%.
